According to patent publication US20210253718A1, “FRIZZLED5 PROTEIN-BINDING AGENTS” (Modmab Therapeutics Corporation, priority 2016, published 2021):

Key:
[1] = biological target: T1, FZD2 CRD (Homo sapiens, UniProt Q14332); experiment: Immunofluorescence of anti-FZD5 Fab binding to CHO cells overexpressing Frizzled CRD; set-up: key: −: no binding; +: very weak binder; ++: weak binder; +++: good binder; ++++: very good binder
T1 construct: D35-P161; GPI anchor signal (C); expressed in transfected cells; host or cells: CHO cells, lentiviral pLenti-puro
Summary of the method: (§1)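 Specificity of anti-FZD5 Fabs was tested on CHO cells displaying membrane-anchored Frizzled CRDs (myc-tagged, GPI-linked), one family member per line. Detection was by immunofluorescence.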

[2] = biological target: T2, FZD5 CRD (Homo sapiens, UniProt Q13467); experiment: as above; set-up: key: −: no binding; +: very weak binder; ++: weak binder; +++: good binder; ++++: very good binder
T2 construct: K29-T156; GPI anchor signal (C); expressed in transfected cells; host or cells: CHO cells, lentiviral pLenti-puro
T2 sequence (Q13467 29-156): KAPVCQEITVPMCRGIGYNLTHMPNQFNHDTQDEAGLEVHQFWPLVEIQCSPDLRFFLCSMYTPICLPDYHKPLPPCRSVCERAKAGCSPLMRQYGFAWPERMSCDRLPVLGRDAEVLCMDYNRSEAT
Summary of the method: as §1

[3] = biological target: T3, FZD6 CRD (Homo sapiens, UniProt O60353); experiment: as above; set-up: key: −: no binding; +: very weak binder; ++: weak binder; +++: good binder; ++++: very good binder
T3 construct: S20-P146; GPI anchor signal (C); expressed in transfected cells; host or cells: CHO cells, lentiviral pLenti-puro
T3 sequence (O60353 20-146): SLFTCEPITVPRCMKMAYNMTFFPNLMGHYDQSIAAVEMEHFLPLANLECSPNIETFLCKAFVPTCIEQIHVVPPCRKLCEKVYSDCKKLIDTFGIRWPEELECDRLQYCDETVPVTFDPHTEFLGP
Summary of the method: as §1

[4] = biological target: T4, FZD7 CRD (Homo sapiens, UniProt O75084); experiment: as above; set-up: key: −: no binding; +: very weak binder; ++: weak binder; +++: good binder; ++++: very good binder
T4 construct: D45-S169; GPI anchor signal (C); expressed in transfected cells; host or cells: CHO cells, lentiviral pLenti-puro
Summary of the method: as §1

[5] = biological target: T5, FZD8 CRD (Homo sapiens, UniProt Q9H461); experiment: as above; set-up: key: −: no binding; +: very weak binder; ++: weak binder; +++: good binder; ++++: very good binder
T5 construct: K31-D155; GPI anchor signal (C); expressed in transfected cells; host or cells: CHO cells, lentiviral pLenti-puro
T5 sequence (Q9H461 31-155): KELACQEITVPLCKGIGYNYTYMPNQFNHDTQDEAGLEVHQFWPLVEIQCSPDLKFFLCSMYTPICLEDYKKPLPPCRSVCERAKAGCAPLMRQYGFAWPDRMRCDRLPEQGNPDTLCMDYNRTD
Summary of the method: as §1

[6] = test system: ASPC-1 cells; experiment: Effect of anti-FZD5 Fabs on proliferation of pancreatic cancer cell lines (percent growth inhibition); type: cell-based, human; conditions: Fab 10 μg/ml
Protocol: (§2) The effect of presently disclosed anti-FZD5 Fabs on proliferation of RNF43 loss-of-function mutant pancreatic cancer cell lines HPAFII, PATU8988S and ASPC-1; and on pancreatic cancer cell line RWP1, was tested at […] and 10 μg/ml.

[7] = test system: HPAFII cells; experiment: as above; type: cell-based, human
Protocol: as §2

[8] = test system: PATU8988S cells; experiment: as above; type: cell-based, human; conditions: Fab 10 μg/ml
Protocol: as §2

[9] = test system: RWP1 cells; experiment: as above; type: cell-based, human; conditions: Fab 10 μg/ml
Protocol: as §2

[10] = test system: CHO cells not expressing Frizzled CRD; experiment: Flow cytometry of anti-FZD5 Fab binding to CHO cells not expressing Frizzled CRD (background)
Excerpt: The binding of anti-FZD5 Fabs to cell surface-expressed Frizzled protein was further determined for each member of the Frizzled family via flow cytometry and immunofluorescence analysis of a panel of 10 CHO cell lines, each ectopically over-expressing the extracellular cysteine-rich domain (CRD) of a different Frizzled protein family member.

[11] = test system: PATU8988S cells; experiment: Effect of anti-FZD5 Fabs on proliferation of pancreatic cancer cell lines (percent growth inhibition); type: cell-based, human; conditions: Fab 2 μg/ml
[12] = test system: ASPC-1 cells; experiment: as above; type: cell-based, human; conditions: Fab 2 μg/ml
[13] = test system: RWP1 cells; experiment: as above; type: cell-based, human; conditions: Fab 2 μg/ml

B1: Fab-2936: anti-FZD5 Fab with antibody variable region Fv-2936; CDR SEQ ID NOs: 35, 36, 75, 112, 151, 179 (antibody, V domains shown)
VH: EVQLVESGGGLVQPGGSLRLSCAASGFNISYYYMHWVRQAPGKGLEWVASIYSSSGSTSYADSVKGRFTISADTSKNTAYLQMNSLRAEDTAVYYCARAAMDYWGQGTLVTVSS
VL: DIQMTQSPSSLSASVGDRVTITCRASQSVSSAVAWYQQKPGKAPKLLIYSASSLYSGVPSRFSGSRSGTDFTLTISSLQPEDFATYYCQQWYAASLITFGQGTKVEIK
[1]
  Immunofluorescence binding, Frizzled CRD overexpressed on CHO cells: FZD2: −
[2]
  Immunofluorescence binding, Frizzled CRD overexpressed on CHO cells: FZD5: ++++
[3]
  Immunofluorescence binding, Frizzled CRD overexpressed on CHO cells: FZD6: −
[4]
  Immunofluorescence binding, Frizzled CRD overexpressed on CHO cells: FZD7: −
[5]
  Immunofluorescence binding, Frizzled CRD overexpressed on CHO cells: FZD8: +
[6]
  percent growth inhibition, ASPC-1 10 μg/ml: 22.02%
[7]; Fab 2 μg/ml
  percent growth inhibition, HPAFII 2 μg/ml: −0.56%
[7]; Fab 10 μg/ml
  percent growth inhibition, HPAFII 10 μg/ml: 12.21%
[8]
  percent growth inhibition, PATU8988s 10 μg/ml: −23.52%
[9]
  percent growth inhibition, RWP1 10 μg/ml: −5.97%
[10]
  Median fluorescence, Frizzled CRD overexpressed on CHO cells: None: 2.81
[11]
  percent growth inhibition, PATU8988s 2 μg/ml: −8.03%
[12]
  percent growth inhibition, ASPC-1 2 μg/ml: 17.01%
[13]
  percent growth inhibition, RWP1 2 μg/ml: 0.02%
